Laboratory results as given in patent publication US20240368668A1, “SUBSTRATES AND BIOMARKERS OF ADAMTS7” (The Broad Institute, Inc., priority 2021, published 2024).
Square brackets hold non-standard residues; d marks the D form. Ends that are not written are not given here.

Target: T1, mouse ADAMTS7 (Mus musculus, UniProt Q68SA9, E373Q)
T1 construct: Full-length mouse Adamts7 1-1857 (Uniprot Q68SA9, WT or E373Q catalytic mutant); expressed in transfected cells; host or cells: Human Coronary Artery Smooth Muscle Cells (HCA-SMC, Lonza), adenovirus 50 MOI
T1 sequence (Q68SA9 221-1657 E373Q): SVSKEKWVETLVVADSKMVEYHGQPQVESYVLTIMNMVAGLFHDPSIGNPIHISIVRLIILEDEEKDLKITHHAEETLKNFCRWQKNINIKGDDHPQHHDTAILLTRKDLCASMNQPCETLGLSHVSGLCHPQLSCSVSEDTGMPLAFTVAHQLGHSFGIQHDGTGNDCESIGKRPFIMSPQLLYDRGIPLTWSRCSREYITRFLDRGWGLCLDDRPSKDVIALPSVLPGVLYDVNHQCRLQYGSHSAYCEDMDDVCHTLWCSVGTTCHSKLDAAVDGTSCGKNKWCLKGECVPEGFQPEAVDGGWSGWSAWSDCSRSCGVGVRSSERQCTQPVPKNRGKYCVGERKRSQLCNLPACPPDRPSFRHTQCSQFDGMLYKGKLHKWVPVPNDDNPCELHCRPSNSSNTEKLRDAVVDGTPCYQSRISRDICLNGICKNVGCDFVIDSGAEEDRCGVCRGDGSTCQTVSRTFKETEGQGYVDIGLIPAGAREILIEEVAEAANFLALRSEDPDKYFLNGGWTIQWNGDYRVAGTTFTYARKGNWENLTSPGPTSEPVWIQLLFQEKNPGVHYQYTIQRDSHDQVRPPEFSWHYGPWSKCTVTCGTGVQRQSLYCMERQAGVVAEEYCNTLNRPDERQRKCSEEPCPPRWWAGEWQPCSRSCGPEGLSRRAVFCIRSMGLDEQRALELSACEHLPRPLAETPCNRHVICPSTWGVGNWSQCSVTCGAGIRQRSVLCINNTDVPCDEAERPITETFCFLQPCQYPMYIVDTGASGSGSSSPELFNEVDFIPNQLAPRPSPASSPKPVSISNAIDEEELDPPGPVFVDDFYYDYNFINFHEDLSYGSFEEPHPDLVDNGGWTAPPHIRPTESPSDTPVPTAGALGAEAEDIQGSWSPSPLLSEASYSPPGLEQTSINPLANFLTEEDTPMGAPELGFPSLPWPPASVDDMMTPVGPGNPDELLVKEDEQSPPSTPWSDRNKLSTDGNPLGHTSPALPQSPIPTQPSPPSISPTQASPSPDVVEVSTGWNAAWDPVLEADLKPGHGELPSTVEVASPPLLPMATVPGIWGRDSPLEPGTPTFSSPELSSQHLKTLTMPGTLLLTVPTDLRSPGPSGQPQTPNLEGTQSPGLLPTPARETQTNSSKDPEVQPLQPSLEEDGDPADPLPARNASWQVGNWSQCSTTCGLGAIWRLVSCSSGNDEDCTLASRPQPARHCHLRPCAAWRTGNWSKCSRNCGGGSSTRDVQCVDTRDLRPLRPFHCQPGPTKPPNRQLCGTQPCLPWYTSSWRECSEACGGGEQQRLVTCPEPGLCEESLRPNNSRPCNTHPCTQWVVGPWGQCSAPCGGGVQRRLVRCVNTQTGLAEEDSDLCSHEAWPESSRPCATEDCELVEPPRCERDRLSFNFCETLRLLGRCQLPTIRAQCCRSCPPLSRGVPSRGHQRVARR
Assay: TMT10 TAILS N-terminomics, HUVEC experiment (process replicates, trypsin/AspN digest)
Format: cell-based, human
Conditions: HUVEC TAILS HC; log fold change of N-terminal peptide, Ad-mADAMTS7 EQ over Luc
Method in brief: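 Full-length mouse ADAMTS7 (WT or E373Q mutant, C-terminal 3xFLAG) or luciferase was transduced via adenovirus, 50 MOI, into HCA-SMC (SMC1, SMC2) or HUVEC. SMC1: pooled media, technical triplicates 400 ug; SMC2: process triplicates 300 ug; HUVEC: process triplicates 200 ug, bFGF2 10 ng/ml.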

logFC.mEQ.over.Luc	Substance
0.09	ECM1_108 (QEAVPLQK; listed as Homo sapiens)
−0.11	EFEMP1_125_ (VAGPEMQTGR; listed as Homo sapiens)
0.64	ERAP2_718 (ISENLKR; listed as Homo sapiens)
−0.05	EWSR1_87 (YSQPVQGYGTGAY; listed as Homo sapiens)
−0.06	FN1_34 ([code q]QMVQPQSPVAVSQSKPGCY; not fully specified (residue 3); listed as Homo sapiens)
−0.27	FN1_35 ([code q]MVQPQSPVAVSQSKPGCY; not fully specified (residue 2); listed as Homo sapiens)
−0.29	FN1_293 (VYQPQPHPQPPPYGHCVT; listed as Homo sapiens)
−0.19	FN1_1144 (TPGVEYVYTIQVLR; listed as Homo sapiens)
−0.47	FN1_1780 (LQGLRPGSEYTVSVVALH; listed as Homo sapiens)
0.05	FN1_1805 (LIGTQSTAIPAPT; listed as Homo sapiens)
−0.62	FN1_2113 (FVTHPGY; listed as Homo sapiens)
−0.24	FSTL1_290 (LQKHQETA; listed as Homo sapiens)
0.24	LOX_125 (FQAGYSTSR; listed as Homo sapiens)

Substance	logFC.mEQ.over.Luc
FN1_607 (SSSGPVEVFIT; listed as Homo sapiens)	−0.40
